Target: the molecule itself
Experiment: SEC; two tandem Superdex 200 3.2/30 PC columns, 100 mM Tris-HCl pH 7.9, 0.15 M NaCl, room temperature, about 50 µg refolded protein; monomer to oligomer equilibrium

B1: soluble recombinant DC-SIGN, entire extracellular domain (residues 70-404) (domain or fragment)
chain: EQSRQDAIYQNLTQLKAAVGELSEKSKLQEIYQELTQLKAAVGELPEKSKLQEIYQELTRLKAAVGELPEKSKLQEIYQELTWLKAAVGELPEKSKMQEIYQELTRLKAAVGELPEKSKQQEIYQELTRLKAAVGELPEKSKQQEIYQELTRLKAAVGELPEKSKQQEIYQELTQLKAAVERLCHPCPWEWTFFQGNCYFMSNSQRNWHDSITACKEVGAQLVVIKSAEEQNFLQLQSSRSNRFTWMGLSDLNQEGTWQWVDGSPLLPSFKQYWNRGEPNNVGEEDCAEFSGNGWNDDKCNLAKFWICKKSAASCSRDEEQFLSPAPATPNPPPA
notes: DC-SIGN, entire extracellular domain, residues 70-404 of GenBank NP_066978; cDNA of immature monocyte-derived dendritic cells; the sense primer carries an ATG before the first DC-SIGN codon; The preparation is a monomer:tetramer equilibrium (3.3:1 tetramer to monomer by SEC); the tetramer predominates. pET15b normally adds an N-terminal His6 tag with a thrombin site (surmised); no cleavage is …
In the case of B1, the “stoichiometry N” value is reported as 4.
